{"source": "patent US20130071418", "key": {"PCP-consensus VPg": {"tested_on": "T1, PCP-consensus VPg", "T1 sequence": "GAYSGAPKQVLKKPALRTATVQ"}}, "data": [{"substance": "Coxsackie virus A25 polymerase (CVA Pol3D)", "values": [{"measurement": "uridylylation of VPg by Pol3D", "setting": "PCP-consensus VPg", "value": "both the PV-Pol3D and that of CVA uridylylated the PCP-consensus VPg as well or better than the one encoded in their respective genomes"}, {"measurement": "uridylylation of VPg by Pol3D", "setting": "CVA24 VPg", "value": "uridylylated the PCP-consensus VPg as well or better than the one encoded in their respective genomes"}]}]}
